Drawing on PMC7170532 (2020), this text covers Kd for two molecules.

For test [1], the target named is T1, pro-myostatin (uncleavable precursor, D99A/R263A/R266A) (human, UniProt O14793 24-375, D99A | R263A | R266A).
T1 sequence: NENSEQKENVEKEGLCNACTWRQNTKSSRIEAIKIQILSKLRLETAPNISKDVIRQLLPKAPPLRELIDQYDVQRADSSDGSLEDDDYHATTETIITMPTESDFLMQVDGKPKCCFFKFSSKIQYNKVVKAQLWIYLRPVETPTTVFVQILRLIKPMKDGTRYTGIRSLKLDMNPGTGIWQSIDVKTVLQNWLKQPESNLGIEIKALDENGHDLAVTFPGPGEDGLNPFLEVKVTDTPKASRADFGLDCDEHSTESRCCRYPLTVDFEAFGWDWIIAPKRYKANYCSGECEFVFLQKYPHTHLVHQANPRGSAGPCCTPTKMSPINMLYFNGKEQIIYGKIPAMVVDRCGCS
The test is described as follows: BLI. On the technique in general: Biolayer interferometry detects binding as a change in optical thickness at a sensor tip.

Another test concerns the target latent myostatin (human, UniProt O14793 267-375). Briefly: BLI.

Bounds are passed on as bounds.

B1: 29H4-16 human IgG4 (antibody, V domains shown)
VH: QIQLVQSGGGVVQPGRSLRLSCAASGFTFSSYGMHWVRQAPGKGLEWVAVISYDGSRKYYADSVKGRFTISRDNSKNTLYLQMNSLRAEDTAVYYCARDLLVRFLYWSHYYGMDVWGQGTTVTVSS
VL: QPVLTQPPSASGTPGQRVTISCSGSSSNIGSNPVHWYQQLPGTAPKLLIYDDNQRPSGVPDRFSGSKSGTSASLVISGLQSDDEADYYCAAWDDSLNSVFGGGTKLTVL
Usually Kd stands for the concentration at which binding is half-saturated. A higher Kd goes with lower affinity. Regarding B1, the Kd (in test [1]; with latent myostatin) was < 0.001 nM throughout.

B2: 29H4-16 Fab (Fab, V domains shown)
VH: QIQLVQSGGGVVQPGRSLRLSCAASGFTFSSYGMHWVRQAPGKGLEWVAVISYDGSRKYYADSVKGRFTISRDNSKNTLYLQMNSLRAEDTAVYYCARDLLVRFLYWSHYYGMDVWGQGTTVTVSS
VL: QPVLTQPPSASGTPGQRVTISCSGSSSNIGSNPVHWYQQLPGTAPKLLIYDDNQRPSGVPDRFSGSKSGTSASLVISGLQSDDEADYYCAAWDDSLNSVFGGGTKLTVL
In the case of B2, the dissociation constant Kd stood at 1.51 nM in test [1] and 1.76 nM with latent myostatin.
